Primed or numbered codes have the meaning given here. Where no end group is shown, it is not given here. [ ]: non-standard residue; d: D form. The star is where a group is joined. Psu″ = N-propylsuccinimide on the Cys thiol (Cys(Psu)), CCCN1C(=O)CC(*)C1=O; Psu(3) = N-propylsuccinimide on Cys S, CCCN1C(=O)CC(*)C1=O; Hsu = N-hexylsuccinimide on Cys S, CCCCCCN1C(=O)CC(*)C1=O; Psu = N-propylsuccinimide (on the Cys sulfur); 2Nal = N[C@@H](Cc1ccc2ccccc2c1)C(=O)O; d2Nal = N[C@H](Cc1ccc2ccccc2c1)C(=O)O; Cyclohexanecarbonyl = O=C(C1CCCCC1)*; Myristoyl = CCCCCCCCCCCCCC(=O)*; Cys(Psu) = not defined here; Decanoyl = CCCCCCCCCC(=O)*; Ac6c = NC1(C(=O)O)CCCCC1; Nle = CCCC[C@H](N)C(=O)O; Orn = NCCC[C@H](N)C(=O)O; Hexanoyl = CCCCCC(=O)*; Aib = CC(C)(N)C(=O)O

Our source for the Ki values is patent publication US20110136724A1 (IPSEN PHARMA S A S, published 2011).

The assay deals with T1, human recombinant GIP receptor (human, UniProt P48546 22-466).
T1 construct: whole, on cells; Assayed as washed membranes of CHO-K1 cells expressing the receptor; also called hGIP receptor
T1 sequence (looked up): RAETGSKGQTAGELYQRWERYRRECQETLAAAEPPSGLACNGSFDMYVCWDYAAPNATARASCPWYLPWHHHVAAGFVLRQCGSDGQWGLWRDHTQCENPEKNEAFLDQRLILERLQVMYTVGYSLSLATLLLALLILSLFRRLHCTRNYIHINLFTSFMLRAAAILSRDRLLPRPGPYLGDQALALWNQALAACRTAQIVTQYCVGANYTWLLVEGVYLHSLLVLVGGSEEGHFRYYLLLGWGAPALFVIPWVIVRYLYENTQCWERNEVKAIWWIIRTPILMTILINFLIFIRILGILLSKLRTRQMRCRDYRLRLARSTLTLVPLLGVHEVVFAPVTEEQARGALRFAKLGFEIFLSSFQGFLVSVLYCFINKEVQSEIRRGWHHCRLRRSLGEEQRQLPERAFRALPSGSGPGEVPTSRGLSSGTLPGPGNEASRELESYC
The experiment in a line: radioligand competition, [125I]GIP on membranes of CHO-K1 cells expressing human GIP receptor. (Displacement assays read how much labelled ligand stays bound in the presence of the test substance.)

On to Cyclohexanecarbonyl-SDYSIAMDKIHQQDFVNWLLAQK[Cys(Psu)]KKNDWKHNITQ-OH (reading uncertain, Synthetic analogue of human GIP) [[Chc-Ser^8, Cys(Psu)^31]hGIP(8-42)-OH], for which the Ki – broadly, the dissociation constant of the complex between target and ligand, obtained from inhibition or displacement – turned out to be 403 nM.

In the case of Decanoyl-[Ac6c]SDYSIAMDKIHQQDFVNWLLAQKGKK[Orn](Decanoyl)DWKHNITQ-OH (Synthetic analogue of human GIP) [[CH3-(CH2)8-C(O)-A6c^7, Orn^34(N-C(O)-(CH2)8-CH3)]hGIP(7-42)-OH], the Ki is 164 nM.

B1: [Ac-A6c^7, Orn^31(N-C(O)-(CH2)12-CH3)]hGIP(7-42)-OH (peptide)
peptide: Ac-[Ac6c]SDYSIAMDKIHQQDFVNWLLAQK[Orn](Myristoyl)KKNDWKHNITQ-OH
notes: Synthetic analogue of human GIP; also called [Ac-Ac6c^7, Orn(N-C(O)-(CH2)12-CH3)^31]hGIP(7-42)-OH
B1: the inhibition constant Ki worked out at 178 nM.

Consider Hexanoyl-SDYSIAMDKIHQQDFVNWLLAQK[Cys(Psu)]KKNDWKHNITQ-OH (reading uncertain, Synthetic analogue of human GIP) [[CH3-(CH2)4-C(O)-Ser^8, Cys(Psu)^31]hGIP(8-42)-OH], for which the Ki was determined as 205 nM.

Consider Ac-[Ac6c]SDYSIAMDKIHQQDFVNWLLAQKC(Psu(3))KKNDWKHNITQ-OH (Synthetic analogue of human GIP) [[Ac-A6c^7, Cys(Psu)^31]hGIP(7-42)-OH], for which the Ki is 963 nM.

With Ac-[Ac6c]SDYSIAMDKIHQQDFVNWLLAQKGKKNDWKHC(Psu″)ITQ-OH (Synthetic analogue of human GIP) [[Ac-A6c^7, Cys(Psu)^39]hGIP(7-42)-OH], the Ki turned out to be 75.7 nM.

As for Ac-[Ac6c]SDYSIAMDKIHQQDFVNWLLAQKGKKNDC(Psu)KHNITQ-OH (Synthetic analogue of human GIP) [[Ac-A6c^7, Cys(Psu)^36]hGIP(7-42)-OH], the Ki amounted to 442 nM.

On to Ac-[Ac6c]SDYSIAMDKIHQQDFVNWLLAQKGKKC(Psu)DWKHNITQ-OH (Synthetic analogue of human GIP) [[Ac-A6c^7, Cys(Psu)^34]hGIP(7-42)-OH], for which the inhibitory constant (Ki) was 735 nM.

As for Ac-[Ac6c]SDYSIAMDKIHQQDFVNWLLAQKGC(Psu)KNDWKHNITQ-OH (Synthetic analogue of human GIP) [[Ac-A6c^7, Cys(Psu)^32]hGIP(7-42)-OH], the Ki is 687 nM.

As to Ac-[Ac6c]SDYSIAMDKIHQQDFVNWLLAQKGKKNDWKC(Psu″)NITQ-OH (Synthetic analogue of human GIP) [[Ac-A6c^7, Cys(Psu)^38]hGIP(7-42)-OH], the Ki was determined as 333 nM.

With Ac-[Ac6c]SDYSIAMDKIHQQDFVNWLLAQKGKKNDWC(Psu″)HNITQ-OH (Synthetic analogue of human GIP) [[Ac-A6c^7, Cys(Psu)^37]hGIP(7-42)-OH], the Ki is 127 nM.

Take Ac-[Ac6c]SDYSIAMDKIHQQDFVNWLLAQKGKKNDWKHNC(Psu″)TQ-OH (Synthetic analogue of human GIP) [[Ac-A6c^7, Cys(Psu)^40]hGIP(7-42)-OH]: the Ki was determined as 532 nM.

Turning to Ac-[Ac6c]SDYSIAMDKIHQQDFVNWLLAQKGKC(Psu)NDWKHNITQ-OH (Synthetic analogue of human GIP) [[Ac-A6c^7, Cys(Psu)^33]hGIP(7-42)-OH], the inhibition constant Ki turned out to be 417 nM.

On to Ac-[Ac6c]SDYSIAMDKIHQQDFVNWLLAQKGKKNC(Psu)WKHNITQ-OH (Synthetic analogue of human GIP) [[Ac-A6c^7, Cys(Psu)^35]hGIP(7-42)-OH], for which the Ki is 486 nM.

Take F[Ac6c]SDYSIAMDKIHQQDFVNWLLAQKC(Psu(3))KKNDWKHNITQ-OH (Synthetic analogue of human GIP) [[A6c^7, Cys(Psu)^31]hGIP(6-42)-OH]: the Ki stood at 277 nM.

For [Ac6c]SDYSIAMDKIHQQDFVNWLLAQKGKK[Orn](Decanoyl)DWKHNITQ-OH (Synthetic analogue of human GIP) [[A6c^7, Orn^34(N-C(O)-(CH2)8-CH3)]hGIP(7-42)-OH], the Ki came out at 274 nM.

As for FXSDYSIAXDKIHQQDFVNWLLAQK (A6c at 7; Nle at 14; hGIP numbering; C-terminal amide, Synthetic analogue of human GIP) [(A6c^7, Nle^14)hGIP(6-30)-NH2], the inhibition constant Ki is 212 nM.

B2: [Ac-Phe^6, A6c^7, Cys(Psu)^31]hGIP(6-31)-NH2 (peptide)
peptide: FXSDYSIAMDKIHQQDFVNWLLAQKC
modifications: N-terminal acetyl (Ac) on Phe 6; A6c at 7; Cys(Psu) at 31; hGIP numbering; C-terminal amide
notes: Synthetic analogue of human GIP
As to B2, the Ki was found to be 77.5 nM.

B3: (A5c^7, Nle^14)hGIP(6-30)-NH2 (peptide)
peptide: FXSDYSIAXDKIHQQDFVNWLLAQK
modifications: A5c (1-amino-1-cyclopentanecarboxylic acid) at 7; Nle (norleucine) at 14; hGIP numbering; C-terminal amide
notes: as for B2
As to B3, the inhibitory constant (Ki) came out at 734 nM.

Regarding [Ac6c]SDYSIAMDKIHQQDFVNWLLAQKC(Hsu)KKNDWKHNITQ-OH (Synthetic analogue of human GIP) [[A6c^7, Cys(Hsu)^31]hGIP(7-42)-OH], the Ki worked out at 772 nM.

B4: (Ac-4Hyp^3, A6c^7)hGIP(3-42)-OH (peptide)
peptide: XGTFXSDYSIAMDKIHQQDFVNWLLAQKGKKNDWKHNITQ
modifications: N-terminal acetyl (Ac); 4Hyp (4-hydroxyproline) at 3; A6c at 7; hGIP numbering; C-terminal free acid
notes: as for B2
As for B4, the Ki amounted to 546 nM.

B5: (4Hppa^2, 4Hyp^3, A6c^7)hGIP(2-42)-OH (peptide)
peptide: XXGTFXSDYSIAMDKIHQQDFVNWLLAQKGKKNDWKHNITQ
modifications: 4Hppa (3-(4-hydroxyphenyl)propionic acid) at 2; 4Hyp at 3; A6c at 7; hGIP numbering; C-terminal free acid
notes: as for B2
For B5, the Ki is 294 nM.

With XEGTFISDYSIXMDKIHQQDFVNWLLAQKGKKNDWKHNITQ (4Hppa at 2; Aib at 13; hGIP numbering; C-terminal free acid, Synthetic analogue of human GIP) [(4Hppa^2, Aib^13)hGIP(2-42)-OH)], the inhibition constant Ki was 12.9 nM.

As to XPGTFISDYSIAXDKIHQQDFVNWLLAQKGKKNDWKHNITQ (4Hppa at 2; Pro at 3; Nle at 14; hGIP numbering; C-terminal free acid, Synthetic analogue of human GIP) [(4Hppa^2, Pro^3, Nle^14)hGIP(2-42)-OH], the inhibition constant (Ki) was 800 nM.

XEGTFISDYXIAMDKIHQQDFVNWLLAQKGKKNDWKHNITQ (4Hppa at 2; A6c at 11; hGIP numbering; C-terminal free acid, Synthetic analogue of human GIP) [(4Hppa^2, A6c^11)hGIP(2-42)-OH]: the Ki came out at 91.8 nM.

As to XEGTFISDYSIAXDKIHQQDFVNWLLAQKGKKNDWKHNITQ (4Hppa at 2; A6c at 14; hGIP numbering; C-terminal free acid, Synthetic analogue of human GIP) [(4Hppa^2, A6c^14)hGIP(2-42)-OH], the inhibition constant Ki was 50.4 nM.

With Ac-F[Ac6c]SDYSIAMDKIHQQDFVNWLLAQKC(Psu″)KKNDWKHNITQ-OH (Synthetic analogue of human GIP) [[Ac-Phe^6, A6c^7, Cys(Psu)^31]hGIP(6-42)-OH], the Ki came out at 574 nM.

For Ac-[Ac6c]SDYSIAMDKIHQQDFVNWLLAQK[2Nal]KKNDWKHNITQ-OH (Synthetic analogue of human GIP) [(Ac-A6c^7, 2Nal^31)hGIP(7-42)-OH], the Ki is 194 nM.

Turning to FISDY[Aib]IA[Nle]DKIHQQDFVNWLLAQK-NH2 (Synthetic analogue of human GIP) [(Aib^11, Nle^14)hGIP(6-30)-NH2], the Ki came to 170 nM.

B6: (Ac-A6c^7, Cys(Psu)^31]hGIP(7-34)-NH2 (peptide)
peptide: XSDYSIAMDKIHQQDFVNWLLAQKCKKN
modifications: N-terminal acetyl (Ac); A6c at 7; Cys(Psu) at 31; hGIP numbering; C-terminal amide
notes: as for B2
Take B6: the Ki came out at 115 nM.

For Ac-[Ac6c]SDYSIAMDKIHQQDFVNWLLAQK[d2Nal]KKNDWKHNITQ-OH (X stands for the non-natural residues) [(Ac-A6c^7, D-2Nal^31)hGIP(7-42)-OH], the Ki worked out at 159 nM.

B7: (Ac-A6c^7, Gln^43)hGIP(7-43)-OH (peptide)
peptide: XSDYSIAMDKIHQQDFVNWLLAQKGKKNDWKHNITQQ
modifications: N-terminal acetyl (Ac); A6c at 7; added Gln at 43; hGIP numbering; C-terminal free acid
notes: Synthetic analogue of human GIP with an added residue 43
Regarding B7, the Ki is 7.92 nM.

On to FXSDYSIAMDKIHQQDFVNWLLAQKC (A6c at 7; Cys(Psu) at 31; hGIP numbering; C-terminal amide, Synthetic analogue of human GIP) [[A6c^7, Cys(Psu)^31]hGIP(6-31)-NH2], for which the inhibition constant (Ki) is 101 nM.

As to FXSDYSIAMDKIHQQDFVNWLLAQK (N-terminal acetyl (Ac) on Phe 6; A6c at 7; hGIP numbering; C-terminal amide, Synthetic analogue of human GIP) [(Ac-Phe^6, A6c^7)hGIP(6-30)-NH2], the Ki turned out to be 68.5 nM.

In the case of Ac-DYSIAMDKIHQQDFVNWLLAQKGK[Cys(Psu)]NDWKHNITQ-OH (reading uncertain, Synthetic analogue of human GIP) [[Ac-Asp^9, Cys(Psu)^33]hGIP(9-42)-OH], the inhibition constant (Ki) is 472 nM.

B8: [Ac-A6c^7, Cys(Psu)^31]hGIP(7-31)-NH2 (peptide)
peptide: XSDYSIAMDKIHQQDFVNWLLAQKC
modifications: N-terminal acetyl (Ac); A6c at 7; Cys(Psu) at 31; hGIP numbering; C-terminal amide
notes: as for B2
On to B8, for which the Ki is 48.3 nM.
